These results are taken from FireProtDB (doi:10.1021/bi034132r).

Where “and” joins values, the source holds several entries; their conditions need not be identical. Equal values may be shown once.

The conditions of this series: Saccharomyces cerevisiae (strain ATCC 204508 / S288c), pH 7, 25 °C, GdnHCl, CD, phosphate 0.1 M, reversible: yes.

Chain of Cytochrome c isoform 1 H32Y, P00044 (P00044 whole entry H32Y, canonical isoform): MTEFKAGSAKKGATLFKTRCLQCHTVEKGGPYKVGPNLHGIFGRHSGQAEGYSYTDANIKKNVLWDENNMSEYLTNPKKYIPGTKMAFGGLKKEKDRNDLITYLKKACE
Chain of Cytochrome c isoform 1 H39Y, P00044 (P00044 whole entry H39Y, canonical isoform): as the sequence (P00044 whole entry H32Y, canonical isoform) above, with Y32H, H39Y counted along it
Chain of Cytochrome c isoform 1 wild type, P00044 (P00044 whole entry, canonical isoform): as the sequence (P00044 whole entry H32Y, canonical isoform) above, with Y32H counted along it

Cytochrome c isoform 1 H32Y, P00044: where the note is “structure 1YCC”, the “ddG of mutation (higher = less stable)” value was 1.82 kcal/mol and 2.1 kcal/mol; the denaturant m value was 2.41 kcal/mol/M and 2.39 kcal/mol/M; the “denaturant midpoint (higher = more stable)” value (from here on “denaturant midpoint”) is 1.4 M and 1.1 M; the unfolding free energy was 3.54 kcal/mol and 3.2 kcal/mol.
Take Cytochrome c isoform 1 H39Y, P00044: under “structure 1YCC”, the “ddG of mutation (higher = less stable)” value was 0.6 kcal/mol, the denaturant m value was determined as 2.87 kcal/mol/M, the “denaturant midpoint” value worked out at 1.6 M and the unfolding free energy turned out to be 4.71 kcal/mol.
“Cytochrome c isoform 1 wild type, P00044”: the denaturant m value was 2.96 kcal/mol/M and 2.94 kcal/mol/M; the “denaturant midpoint” value came to 1.8 M; the unfolding free energy was 5.35 kcal/mol and 5.31 kcal/mol.
